The record followed here is patent US20230322924A1 (Janssen / Centocor, published 2023).

Changes are numbered by the printed parent chain.

In assay [1] the target is T1, human PSMA on LNCaP cells (human, UniProt Q04609 1-750).
T1 construct: PSMA of the LNCaP prostate cancer cell line itself
Nature of the assay: flow cytometry, Fab supernatant, LNCaP cells. Here is the method: (§1) A cell-based binding assay was designed to assess the binding capabilities of individual Fab-his fusions from E. coli supernatants to PSMA-expressing cells. Individual Fab clones were isolated from the round 3 output of all panning experiments following pIX excision. Fab clones were tested for binding to chimp and cyno PSMA expressing HEK cells, as well as to human PSMA on LNCaP cells. Briefly, PSMA expressing cells were aliquoted into a V-bottom plate (CoStar 3357) at a density of 200,000 per well and incubated with (100 μl) supernatants expressing Fab fragments for 1 hour on ice. Cells were washed twice with PBS containing 2% FBS, and stained with a mouse anti-human kappa-RPE antibody (Life Technologies cat #MH10514) for 1 hour on ice. Cells were washed twice with PBS containing 2% FBS and resuspended in […] of the same wash buffer. Plates were read on a BD FACS Array flow cytometer. FACS data was analyzed in FlowJo software by live gating the healthy population of cells using forward scatter and side scatter, and then analyzing the cells within this gate for PE staining. Mean fluorescence intensity (MFI) was calculated and exported into Microsoft Excel. […] Fabs were sequenced and moved forward for cloning into mammalian expression vector for rescreening. True positives were selected from the binding of mammalian cell expressed Fab supernatants to PSMA-expressing cell lines.
(§2) Confirmation of mammalian expressed Fab supernatants was performed using the whole cell binding assay described previously. Binding of Fabs to human PSMA (LNCaP), chimpanzee, and cynomolgous monkey cells was tested, as well as counter screening for no binding to the parental HEK cell line.

The target in assay [2] is T2, Cynomolgous monkey PSMA, full length, on HEK293F cells (Macaca fascicularis (cynomolgus monkey)).
T2 construct: stably transfected HEK293F cells; also called cyno PSMA; Cyno-PSMA HEK
T2 chain: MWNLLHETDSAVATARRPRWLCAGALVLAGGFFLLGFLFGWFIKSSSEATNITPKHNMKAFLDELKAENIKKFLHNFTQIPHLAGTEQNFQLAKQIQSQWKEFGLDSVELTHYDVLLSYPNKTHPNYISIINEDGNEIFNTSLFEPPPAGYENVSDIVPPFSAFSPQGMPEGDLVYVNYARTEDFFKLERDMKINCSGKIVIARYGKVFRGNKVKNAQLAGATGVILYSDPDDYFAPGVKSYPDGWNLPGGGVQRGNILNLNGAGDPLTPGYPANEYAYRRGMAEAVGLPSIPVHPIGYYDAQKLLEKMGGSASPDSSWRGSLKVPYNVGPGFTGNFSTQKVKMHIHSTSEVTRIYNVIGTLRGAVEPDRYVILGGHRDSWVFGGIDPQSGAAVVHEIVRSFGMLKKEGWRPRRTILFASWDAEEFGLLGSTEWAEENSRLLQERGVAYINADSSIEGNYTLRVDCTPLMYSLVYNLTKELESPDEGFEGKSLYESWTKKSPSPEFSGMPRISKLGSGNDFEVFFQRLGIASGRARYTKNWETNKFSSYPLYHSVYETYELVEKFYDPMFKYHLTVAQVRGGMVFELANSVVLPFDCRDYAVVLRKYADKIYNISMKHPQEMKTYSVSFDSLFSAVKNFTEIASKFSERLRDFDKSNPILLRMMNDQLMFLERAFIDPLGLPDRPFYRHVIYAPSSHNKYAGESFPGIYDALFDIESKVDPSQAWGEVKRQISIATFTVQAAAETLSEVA
Put plainly: flow cytometry, Fab supernatant, cyno PSMA HEK cells. Here is the method: as §1, with “Individual” for “A cell-based binding assay was designed to assess the binding capabilities of individual Fab-his fusions from E. coli supernatants to PSMA-expressing cells. Individual”
as §2

The target in assay [3] is T3, chimpanzee PSMA, full length, on HEK293F cells (Pan troglodytes (chimpanzee)).
T3 construct: stably transfected HEK293F cells; also called chimp PSMA; chimp-PSMA HEK
T3 chain: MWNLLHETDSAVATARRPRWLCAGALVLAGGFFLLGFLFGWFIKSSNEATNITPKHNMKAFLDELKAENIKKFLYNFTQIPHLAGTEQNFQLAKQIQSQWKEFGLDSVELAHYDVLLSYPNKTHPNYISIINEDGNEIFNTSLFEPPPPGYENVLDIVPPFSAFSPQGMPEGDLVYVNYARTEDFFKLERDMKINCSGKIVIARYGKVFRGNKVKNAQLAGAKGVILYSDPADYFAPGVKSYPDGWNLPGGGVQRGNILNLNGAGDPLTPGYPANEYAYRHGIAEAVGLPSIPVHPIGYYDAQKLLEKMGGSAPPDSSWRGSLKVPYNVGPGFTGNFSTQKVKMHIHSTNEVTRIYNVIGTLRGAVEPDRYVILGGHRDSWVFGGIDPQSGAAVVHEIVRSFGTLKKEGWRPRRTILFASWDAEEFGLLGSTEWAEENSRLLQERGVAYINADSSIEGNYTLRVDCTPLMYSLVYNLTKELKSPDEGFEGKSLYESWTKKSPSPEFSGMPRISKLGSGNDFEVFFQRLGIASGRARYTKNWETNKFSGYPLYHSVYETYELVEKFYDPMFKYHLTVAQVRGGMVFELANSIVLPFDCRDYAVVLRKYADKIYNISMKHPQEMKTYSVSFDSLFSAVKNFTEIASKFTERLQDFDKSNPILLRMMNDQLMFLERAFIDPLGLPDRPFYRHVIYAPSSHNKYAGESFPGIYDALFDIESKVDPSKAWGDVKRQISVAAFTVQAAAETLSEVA
Put plainly: flow cytometry, Fab supernatant, chimp PSMA HEK cells. Here is the method:
as §1, with “Individual” for “A cell-based binding assay was designed to assess the binding capabilities of individual Fab-his fusions from E. coli supernatants to PSMA-expressing cells. Individual”
as §2

For another assay, the target named is Human CD33 full length (human, UniProt P20138 18-364). Nature of the assay: cell-based or functional assay.
Human CD33 full length, sequence (P20138 18-364 limits assumed): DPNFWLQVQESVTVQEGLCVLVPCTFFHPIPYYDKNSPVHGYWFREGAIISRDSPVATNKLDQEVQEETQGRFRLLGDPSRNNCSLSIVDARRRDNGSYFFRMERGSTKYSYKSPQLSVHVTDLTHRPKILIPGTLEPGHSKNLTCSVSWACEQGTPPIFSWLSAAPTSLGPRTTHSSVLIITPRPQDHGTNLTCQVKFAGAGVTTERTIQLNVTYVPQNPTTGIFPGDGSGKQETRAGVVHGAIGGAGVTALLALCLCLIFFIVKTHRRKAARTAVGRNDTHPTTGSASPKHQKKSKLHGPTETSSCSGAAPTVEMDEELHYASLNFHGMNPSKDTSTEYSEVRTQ

T1 sequence (Q04609 whole entry): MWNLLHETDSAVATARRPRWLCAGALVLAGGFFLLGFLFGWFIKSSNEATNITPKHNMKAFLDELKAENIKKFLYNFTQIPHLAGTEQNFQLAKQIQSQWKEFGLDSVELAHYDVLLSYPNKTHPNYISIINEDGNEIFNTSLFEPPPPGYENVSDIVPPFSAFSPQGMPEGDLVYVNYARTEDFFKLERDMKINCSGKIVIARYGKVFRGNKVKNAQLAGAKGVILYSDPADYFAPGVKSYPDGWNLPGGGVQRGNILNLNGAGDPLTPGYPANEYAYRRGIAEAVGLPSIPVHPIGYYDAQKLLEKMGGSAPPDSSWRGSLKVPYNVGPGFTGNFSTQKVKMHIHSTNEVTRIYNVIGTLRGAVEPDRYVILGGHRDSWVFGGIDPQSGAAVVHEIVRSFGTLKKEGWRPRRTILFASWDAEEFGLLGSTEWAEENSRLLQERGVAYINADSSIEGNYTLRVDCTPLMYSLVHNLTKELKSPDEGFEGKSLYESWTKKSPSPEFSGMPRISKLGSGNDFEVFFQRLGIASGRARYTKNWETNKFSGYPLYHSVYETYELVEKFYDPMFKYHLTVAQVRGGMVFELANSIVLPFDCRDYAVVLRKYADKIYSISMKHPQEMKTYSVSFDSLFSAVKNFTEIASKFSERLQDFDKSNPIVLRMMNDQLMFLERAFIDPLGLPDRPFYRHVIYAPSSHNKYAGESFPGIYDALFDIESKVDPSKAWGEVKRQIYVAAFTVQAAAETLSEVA

B1: PSMB58 (Fab, V domains shown)
VH: EVQLVQSGAEVKKPGESLKISCKGSGYSFTSYWISWVRQMPGKGLEWMGIIYPGDSYTRYSPSFQGQVTISADKSISTAYLQWSSLKASDTAMYYCARDYEWELFDSRLDYWGQGTLVTVSS
VL: not shown
notes: mammalian-expressed Fab supernatant (huG1 Fab and human kappa vectors); also called PSMM59
In the case of B1, the Geo-MFI is 25.3 in assay [1], 121 in assay [2] and 192 in assay [3].

B2: PSMB56 (Fab, V domains shown)
VH: QVQLVQSGAEVKKPGSSVKVSCKASGGTFSSYAISWVRQAPGQGLEWMGWISPYNGNANYAQKFQGRVTITADESTSTAYMELSSLRSEDTAVYYCARDSDRSYNLDYWGQGTLVTVSS
VL: not shown
notes: mammalian-expressed Fab supernatant (huG1 Fab and human kappa vectors); also called PSMM57
Take B2: the figures for the Geo-MFI in assay [1], in assay [2] and in assay [3] were 24.5, 95.6 and 34.7, respectively.

B3: C3CB11 (bispecific antibody, IgG4, V domains shown)
VH 1: QVQLVESGGGVVQPGRSLRLSCVASGFTFSSYGMHWVRQAPGKGLEWVAVISYDGSNKYYADSVKGRFTISRDNSKNTLYLQMNSLRAEGTAVYYCAKDFRSFDWLPPDSASYHGMDVWGQGTTVTVSS
VL 1: SYELTQPPSVSVSPGQTASITCSGDKLGDKYACWYQQKPGQSPVLVIYQDGKRPSGIPERFSGSNFGNKATLTISGTQAMDEADYYCQAWDRNTVVFGGGTKLTVL
VH 2: EVQLVESGGGLVQPGGSLRLSCAASGFTFNTYAMNWVRQAPGKGLEWVARIRSKYNNYATYYAASVKGRFTISRDDSKNSLYLQMNSLKTEDTAVYYCARHGNFGNSYVSWFAYWGQGTLVTVSS
VL 2: QTVVTQEPSLTVSPGGTVTLTCRSSTGAVTTSNYANWVQQKPGQAPRGLIGGTNKRAPGTPARFSGSLLGGKAALTLSGVQPEDEAEYYCALWYSNLWVFGGGTKLTVL
For B3, the “Primary AML Cell Killing EC50” value with Human CD33 full length stood at 3.96 nM.

B4: C3CB12 (bispecific antibody, IgG4, V domains shown)
VH 1: not shown
VL 1: B3 VL 1 with D25N, D29A, Y31F, C33S, G51N, F66S, K69T, M80V, R92S, N93S
VH 2: B3 VH 2
VL 2: B3 VL 2
Consider B4, for which, in the assay with Human CD33 full length, the “Primary AML Cell Killing EC50” value amounted to 2.63 nM.

B5: PSMB80 (Fab, V domains shown)
VH: QVQLVQSGAEVKKPGSSVKVSCKASGGTFDDYAISWVRQAPGQGLEWMGRIDPIEGTANYAQKFQGRVTITADESTSTAYMELSSLRSEDTAVYYCARDRYYYDGVYWYSDYFDYWGQGTLVTVS
VL: not shown
notes: mammalian-expressed Fab supernatant (huG1 Fab and human kappa vectors); also called PSMM81
As for B5, the Geo-MFI in assay [1] turned out to be 20.9; in assay [2], 19.6; in assay [3], 18.6.

B6: PSMB18 (Fab, V domains shown)
VH: EVQLVQSGAEVKKPGESLKISCKGSGYSFTSYWIGWVRQMPGKGLEWMGIIYPGDSDTRYSPSFQGQVTISADKSISTAYLQWSSLKASDTAMYYCARAYHYSKGLDYWGQGTLVTVSS
VL: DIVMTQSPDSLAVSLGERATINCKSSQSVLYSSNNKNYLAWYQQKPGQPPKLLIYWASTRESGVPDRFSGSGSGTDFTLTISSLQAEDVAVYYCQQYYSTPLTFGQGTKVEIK
notes: mammalian-expressed Fab supernatant (huG1 Fab and human kappa vectors); also called PSMM18
In the case of B6, the Geo-MFI in assay [2] turned out to be 696; in assay [3], 439.

B7: PSMB25 (Fab, V domains shown)
VH: B6 VH with A99G, Y100W, H101A, S103D, K104R
VL: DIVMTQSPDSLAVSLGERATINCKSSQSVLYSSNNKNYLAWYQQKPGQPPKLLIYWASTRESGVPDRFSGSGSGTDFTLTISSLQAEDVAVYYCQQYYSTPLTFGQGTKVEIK
notes: mammalian-expressed Fab supernatant (huG1 Fab and human kappa vectors); also called PSMM25
For B7, the Geo-MFI amounted to 16.9 in assay [1], 15.2 in assay [2] and 11.3 in assay [3].

B8: PSMB49 (Fab, V domains shown)
VH: QVQLVQSGAEVKKPGSSVKVSCKASGGTFSSYAISWVRQAPGQGLEWMGGIIPIFGTANYAQKFQGRVTITADESTSTAYMELSSLRSEDTAVYYCARASRVWHASYGYLDYWGQGTLVTVSS
VL: EIVLTQSPATLSLSPGERATLSCRASQSVSKWLAWYQQKPGQAPRLLIYDASNRATGIPARFSGSGSGTDFTLTISSLEPEDFAVYYCQQRFTAPWTFGQGTKVEIK
notes: mammalian-expressed Fab supernatant (huG1 Fab and human kappa vectors); also called PSMM50
With B8, the Geo-MFI in assay [1] stood at 3.22; in assay [2], 51.6; in assay [3], 22.

B9: PSMB55 (Fab, V domains shown)
VH: EVQLVQSGAEVKKPGESLKISCKGSGYSFTSYWIGWVRQMPGKGLEWMGIIYPGDSDTRYSPSFQGQVTISADKSISTAYLQWSSLKASDTAMYYCARGLPIWYLDYWGQGTLVTVSS
VL: B8 VL with S30A, K31S, W32D, D50F, R91S, F92I, A94W, W96F
notes: mammalian-expressed Fab supernatant (huG1 Fab and human kappa vectors); also called PSMM56
Turning to B9, the Geo-MFI is 17.2 in assay [1], 226 in assay [2] and 180 in assay [3].

B10: PSMB51 (Fab, V domains shown)
VH: QVQLVQSGAEVKKPGSSVKVSCKASGGTFSSYAISWVRQAPGQGLEWMGWIIPYNGNANYAQKFQGRVTITADESTSTAYMELSSLRSEDTAVYYCARVNSAALVWERLDYWGQGTLVTVSS
VL: DIQMTQSPSSLSASVGDRVTITCRASQSIDRWLNWYQQKPGKAPKLLIYAASSLQSGVPSRFSGSGSGTDFTLTISSLQPEDFATYYCQQSPRYPLTFGQGTKVEIK
notes: mammalian-expressed Fab supernatant (huG1 Fab and human kappa vectors); also called PSMM52
Regarding B10, the Geo-MFI in assay [1] is 41.5; in assay [2], 285; in assay [3], 231.

B11: PSMB109 (Fab, V domains shown)
VH: B10 VH with I52S
VL: B10 VL
notes: mammalian-expressed Fab supernatant (huG1 Fab and human kappa vectors); also called PSMM110
B11: the Geo-MFI is 34.9 in assay [1], 321 in assay [2] and 326 in assay [3].

B12: PSMB84 (Fab, V domains shown)
VH: EVQLLESGGGLVQPGGSLRLSCAASGFTFDSDWMSWVRQAPGKGLEWVSAISGNGGSTEYADSVKGRFTISRDNSKNTLYLQMNSLRAEDTAVYYCARDPYYYYDGDSYYGMDVWGQGTLVTVSS
VL: not shown
notes: mammalian-expressed Fab supernatant (huG1 Fab and human kappa vectors); also called PSMM85
Turning to B12, the Geo-MFI turned out to be 192 in assay [1], 750 in assay [2] and 729 in assay [3].

B13: PSMB86 (Fab, V domains shown)
VH: QVQLVQSGAEVKKPGSSVKVSCKASGGTFKSYDISWVRQAPGQGLEWMGGIIPIEGTANYAQKFQGRVTITADESTSTAYMELSSLRSEDTAVYYCARDYPAGYGFDYWGQGTLVTVSS
VL: not shown
notes: mammalian-expressed Fab supernatant (huG1 Fab and human kappa vectors); also called PSMM87
In the case of B13, the Geo-MFI came out at 31.7 in assay [1], 224 in assay [2] and 176 in assay [3].
